We go through twelve molecules from patent US12441803B2, “Engineered CD25 polypeptides and uses thereof” (iBio, Inc., priority 2018, dated 2025).

Residue numbers refer to the chain shown, from its start.

T1: CD25 (Homo sapiens, UniProt P01589)
T1 sequence (P01589 22-272): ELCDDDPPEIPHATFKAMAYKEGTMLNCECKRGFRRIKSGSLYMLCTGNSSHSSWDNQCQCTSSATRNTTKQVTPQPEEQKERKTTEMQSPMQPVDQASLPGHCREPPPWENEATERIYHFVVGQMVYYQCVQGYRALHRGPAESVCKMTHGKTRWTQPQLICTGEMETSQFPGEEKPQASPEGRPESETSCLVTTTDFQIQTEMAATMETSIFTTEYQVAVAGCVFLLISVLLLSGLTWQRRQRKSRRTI

B1: YU390-A11: anti-CD25 scFv clone, SEQ ID NO: 736 (protein, listed as Mus musculus)
scFv: PGRSLRLSCAASGFTFSSYGMHWVRQAPGKGLEWVAVISYDGSNKYYADSVKGRFTISRDNSKNTLYLQMNSLRAEDTAVYYCAKELLEGAFDIWGQGTMVTVSSCAKELLEGAFDIWSYVLTQPPSLSVAPGQTARITCGGDNIETKSVHWYQQRPGQAPVLVVYDDDDRPSGIPERFSGSNSGNTATLTISRVEAGDEADYYCQVWDSSSGHREVFGGRTKPALLCQVWDSSSGHREVF
B2: YU390-B12: anti-CD25 scFv clone, SEQ ID NO: 738 (protein, listed as Mus musculus)
scFv: B1 scFv with R221G, P224L, A225T, L226V
B3: YU389-A03: anti-CD25 scFv clone, SEQ ID NO: 730 (protein, listed as Mus musculus)
scFv: PSQTLSLTCTVSGGSISSGGYYWSWIRQHPGKGLEWIGYIYYSGSTYYNPSLKSRVTISVDTSKNQFSLKLSSVTAADTAVYYCARGNLWSGYYFWGQGTLVTVSSCARGNLWSGYYFWQSVLTQPPSVSAAPGQKVTISCSGSSSNIGNNFVSWYQQVPGTAPKLLTYDSTKRPAGIPDRFSGSKSGTSATLEIAGLQTGDEADYYCGSWDTNLSGYVFGTGTKVTVLCGSWDTNLSGYVF
B4: YU403-G05: anti-CD25 scFv clone, SEQ ID NO: 835 (protein, listed as Mus musculus)
scFv: PSGDLSLTCDVSGGSISRSNWWIWVRQPPGKGLEWIGEIYHTGSTNYNPSLKRRVTISVDKSKNQFSLNLSSVTAADTAVYYCARGKGSYAFDIWGLGTMVTVSSCARGKGSYAFDIWVLTQPHSVSESPGKTVTISCTGSGGNIARNYVQWYQHRPGRAPSTVIYEDDRRPSGVPDRFSGSTDISSNSASLTISGLKTEDEADYYCQSYDGNNHMVFGGGTRVTVLCQSYDGNNHMVF
B5: YU397-D01: anti-CD25 scFv clone, SEQ ID NO: 817 (protein, listed as Mus musculus)
scFv: PSGTLSLTCAVSGGSISSSNWWSWVRQPPGKGLEWIGEIYHSGSTNYNPSLKSRVTISVDKSKNQFSLKLSSVTAADTAVYYCARARGGRYFDYWGQGTLVTVSSCARARGGRYFDYWDIVLTQSPSFLSASVGDRVTITCRASQGISTYLAWYQQKPGTAPKVLMYAASTLHSGVPSRFSGSGSGTEFTLTISSLQPEDFAIYYCQQLNGYPTTFGGGTRVEIKCQQLNGYPTTF
B6: YU400-B07: anti-CD25 scFv clone, SEQ ID NO: 822 (protein, listed as Mus musculus)
scFv: PGRSLRLSCAASGFTFSSYGMHWVRQAPGKGLEWVAVISYDGSNKYYADSVKGRFTISRDNSKNTLYLQMNSLRAEDTAVYYCAKGDVNYGMDVWGQGTTVTVSSCAKGDVNYGMDVWSYVLTQPPSVSVAPGKTARITCGGNNIGSKSVHWYQQKPGQAPVLVVYDDTDRPSGIPERFSGSNSGNTATLTISRVEAGDEADYYCQVWDSSSDLLWVFGGGTKLAVLCQVWDSSSDLLWVF
B7: YU392-B11: anti-CD25 scFv clone, SEQ ID NO: 750 (protein, listed as Mus musculus)
scFv: PGATVKISCKVSGYTFTDYYMHWVQQAPGKGLEWMGLVDPEDGETIYAEKFQGRVTITADTSTDTAYMELSSLRSEDTAVYYCAVEGGRAPGTYYYDSSGLAYWGQGTLVTVSSCAVEGGRAPGTYYYDSSGLAYWQAGLTQPPSASGTPGQRVTISCSGSSSNIGSNYVYWYQQLPGTAPKLLIYSNNQRPSGVPDRFSGSKSGTSASLAISGLRSEDEADYYCATWDDSLSGVVFGGGTKLTVLCATWDDSLSGVVF
B8: YU398-A11: anti-CD25 scFv clone, SEQ ID NO: 818 (protein, listed as Mus musculus)
scFv: PGRSLRLSCAASGFTFSSYGMHWVRQAPGKGLEWVAVISYDGSNKYYADSVKGRFTISRDNSKNTLYLQMNSLRAEDTAVYYCAKGQGDGMDVWGQGTTVTVSSCAKGQGDGMDVWYELTQPPSASGTPGQRVTISCSGSSSNVGSRTVSWFQQLPGTAPKLLIYSNNLRPSGVPDRFSGSKSGTSASLAISGLQSEDEADYYCAAWDDSLIGHVFGTGTKVTVVCAAWDDSLIGHVF
B9: YU392-A09: anti-CD25 scFv clone, SEQ ID NO: 749 (protein, listed as Mus musculus)
scFv: PGATVKISCKVSGYTFTDYYMHWVQQAPGKGLEWMGLVDPEDGETIYAEKFQGRVTITADTSTDTAYMELSSLRSEDTAVYYCATEGRYGMDVWGQGTTVTVSSCATEGRYGMDVWQAVLTQPPSVSGTPGQRVTISCSGNNFNIGNNLVYWYQQLPGTAPKLLIYANDERPSGVPDRFSGSKSGTSASLAISGLRSEDDADYYCATWDDSLSGVVFGGGTKLTALCATWDDSLSGVVF
B10: YU401-G07: anti-CD25 scFv clone, SEQ ID NO: 831 (protein, listed as Mus musculus)
scFv: LGRSLRLSCAASGFTFSSYGMHWVRQAPGKGLEWVAVISYDGSNKYYADSVKGRFTISRDNSKNTLYLQMNSLRAEDTAVYYCAKGDVNYGMDVWGQGTTVTVSSCAKGDVNYGMDVWSYVLTQPPSVSVAPGQTARISCGGSNIGSKTVNWYRKKAGQAPVLVVYDGRDRPSGIPERFSGSNSGNAATLIISRVEVGDEADYYCQVWDTSGDLHWAFGGGTKLTVLCQVWDTSGDLHWAF
B11: YU401-B01: anti-CD25 scFv clone, SEQ ID NO: 827 (protein, listed as Mus musculus)
scFv: PGSSVKVSCKASGGTFSSYAISWVRQAPGQGLEWMGGIIPIFGTANYAQKFQGRVTITADESTSTAYMELSSLRSEDTAVYYCAREMYYYYGMDVWGQGTTVTVSSCAREMYYYYGMDVWDIVMTQSPSSLSASVGDRVTITCRASQSIITYLNWYQQKPGKVPKLLIYAASSLQSGVPSRFSGSGSGTDFTLTISSLQPEDFATYYCQQSYSTPPTFGQGTKLEIKCQQSYSTPPTF
B12: YU400-D09: anti-CD25 scFv clone, SEQ ID NO: 823 (protein, listed as Mus musculus)
scFv: PGSSVKVSCKASGGTFSSYAISWVRQAPGQGLEWMGGIIPIFGTANYAQKFQGRVTITADESTSTAYMELSSLRSEDTAVYYCARDFNPFSITIFEMDVWGQGTTVTVSSCARDFNPFSITIFEMDVWQSVLTQPPSVSAAPGQKVTISCSGSSSNIGNNYVSWYQQLPGTAPKLLIYDNNKRPSGIPDRFSGSKSGTSATLGITGLQTGDEADYYCGTWDSSLSALVFGGGTKLTVLCGTWDSSLSALVF

The assay concerns the target T1, CD25. The assay can be described thus: Binding of human IgG1 format antibodies to CD25 by Octet. The following applies: read-out: Biosensor Measured CD25 Affinity. An excerpt: Thirty antibodies were selected for additional testing as full-length immunoglobulins. The heavy and light chain sequences were cloned into human immunoglobulin G (IgG1) format and expressed and purified.
Turning to B1, the Kd turned out to be 13.3 nM.

Consider B2, for which the Kd worked out at 13.7 nM.

For the molecule B3, the Kd was 9.55 nM.

On to B4, for which the Kd is 31.9 nM.

Turning to B5, the Kd stood at 3.86 nM.

Take B6: the Kd turned out to be 57.8 nM.

On to B7, for which the Kd worked out at 65.6 nM.

B8: the Kd was found to be 12.1 nM.

For B9, the Kd was 12.4 nM.

B10: the Kd stood at 15.3 nM.

On to B11, for which the Kd stood at 70.4 nM.

As for B12, the Kd is 54.6 nM.
